Results published in patent US20150057236A1 (CORNELL UNIVERSITY, published 2015).
One block for each binder: values may come before it. *1 amine or outer side, *2 acyl side, *3 side chain or, on linkers, in order; H or OH if unused. Where no end group is shown, it is not given here. The star is where a group is joined. thiosuccinyl = thiosuccinyl group on a lysine side chain (thiosuccinyl lysine); AMC = Cc1cc(=O)oc2cc(N*)ccc12; Suc = O=C(CCC(=O)[*:2])[*:1]

Columns and labels:
Test in all cases: cell-based or functional assay
human Sirt5 [1] = molecular target: T1, human Sirt5 (human, UniProt Q9NXA8 1-310, limits assumed)
human Sirt1 = molecular target: T2, human Sirt1 (human, UniProt Q96EB6 1-747, limits assumed)
T2 sequence (looked up): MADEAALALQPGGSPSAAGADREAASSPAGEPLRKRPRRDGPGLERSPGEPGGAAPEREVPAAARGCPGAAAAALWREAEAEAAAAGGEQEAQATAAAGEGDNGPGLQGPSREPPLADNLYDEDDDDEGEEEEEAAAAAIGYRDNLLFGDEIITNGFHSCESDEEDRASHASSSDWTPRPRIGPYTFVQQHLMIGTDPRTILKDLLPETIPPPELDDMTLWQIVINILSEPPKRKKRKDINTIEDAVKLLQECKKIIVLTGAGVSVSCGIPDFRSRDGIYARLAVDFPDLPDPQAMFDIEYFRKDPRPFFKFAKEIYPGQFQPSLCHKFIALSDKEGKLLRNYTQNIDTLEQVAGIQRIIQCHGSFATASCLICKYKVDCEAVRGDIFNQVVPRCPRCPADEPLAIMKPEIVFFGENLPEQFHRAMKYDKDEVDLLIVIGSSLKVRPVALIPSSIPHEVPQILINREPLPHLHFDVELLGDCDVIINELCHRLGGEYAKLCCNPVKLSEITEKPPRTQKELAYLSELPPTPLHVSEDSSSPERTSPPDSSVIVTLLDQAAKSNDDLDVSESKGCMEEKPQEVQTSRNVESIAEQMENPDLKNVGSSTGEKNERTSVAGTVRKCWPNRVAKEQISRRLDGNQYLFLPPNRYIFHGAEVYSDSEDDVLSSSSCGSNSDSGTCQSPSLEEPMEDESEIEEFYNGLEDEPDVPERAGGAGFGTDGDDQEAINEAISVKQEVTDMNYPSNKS

human Sirt3 = molecular target: T3, human Sirt3 (human, UniProt Q9NTG7 102-399, limits assumed)
T3 sequence (looked up): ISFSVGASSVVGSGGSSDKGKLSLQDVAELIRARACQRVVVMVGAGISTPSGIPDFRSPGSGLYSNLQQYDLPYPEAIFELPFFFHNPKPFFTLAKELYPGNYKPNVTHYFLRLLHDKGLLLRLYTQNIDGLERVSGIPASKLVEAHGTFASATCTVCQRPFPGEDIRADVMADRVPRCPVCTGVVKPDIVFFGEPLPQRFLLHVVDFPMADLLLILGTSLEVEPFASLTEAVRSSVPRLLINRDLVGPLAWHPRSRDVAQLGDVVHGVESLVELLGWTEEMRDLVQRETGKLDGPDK

human Sirt2 = molecular target: T4, human Sirt2 (human, UniProt Q8IXJ6 1-389, limits assumed)
T4 sequence (looked up): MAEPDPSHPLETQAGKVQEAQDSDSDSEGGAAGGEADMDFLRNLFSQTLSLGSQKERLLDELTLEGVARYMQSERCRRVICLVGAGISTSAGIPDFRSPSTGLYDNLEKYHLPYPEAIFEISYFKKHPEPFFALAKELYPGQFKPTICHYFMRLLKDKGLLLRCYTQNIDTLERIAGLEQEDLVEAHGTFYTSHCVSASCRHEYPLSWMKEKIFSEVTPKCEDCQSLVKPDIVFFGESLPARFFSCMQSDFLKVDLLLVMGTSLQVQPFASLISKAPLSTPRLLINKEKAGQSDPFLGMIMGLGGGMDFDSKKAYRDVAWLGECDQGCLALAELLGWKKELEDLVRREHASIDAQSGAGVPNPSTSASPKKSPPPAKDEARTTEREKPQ

human Sirt5 [2] = molecular target: T1, human Sirt5; remark: listed apart in the source

T1 sequence (Q9NXA8 whole entry): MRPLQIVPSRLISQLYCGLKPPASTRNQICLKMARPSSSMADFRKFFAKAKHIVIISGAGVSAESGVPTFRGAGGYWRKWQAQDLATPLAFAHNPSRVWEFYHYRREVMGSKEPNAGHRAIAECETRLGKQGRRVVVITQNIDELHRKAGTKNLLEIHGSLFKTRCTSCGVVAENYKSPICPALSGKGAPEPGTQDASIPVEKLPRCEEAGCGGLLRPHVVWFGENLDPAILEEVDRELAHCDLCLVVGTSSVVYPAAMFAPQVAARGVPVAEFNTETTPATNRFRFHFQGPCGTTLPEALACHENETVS

fluorescence increase against control without Sirt5, 1 µM Sirt5 (human Sirt5 [1]): 11 fold
fluorescence increase against control without Sirt5, 2 µM Sirt5 (human Sirt5 [1]): 20 fold
fluorescence increase against control without Sirt5, 5 µM Sirt5 (human Sirt5 [1]): 26 fold
B1: ISGASE(SuK)-AMC peptide (peptide)
peptide: ISGASEK(Suc)-{AMC}

IC50 (µM), inhibition of sirtuin deacylase activity (human Sirt1): > 100 µM
IC50 (µM), inhibition of sirtuin deacylase activity (human Sirt3): > 100 µM
IC50 (µM), inhibition of sirtuin deacylase activity (human Sirt2): > 100 µM
IC50 (µM), inhibition of sirtuin deacylase activity (human Sirt5 [2]): 5 µM
B2: H3K9 thiosuccinyl (H3K9 TSu) peptide, KQTAR(TSuK)STGGKA (peptide)
peptide: KQTARK(thiosuccinyl)STGGKA

fluorescence increase against control without Sirt5 (fluorogenic assay) (human Sirt5 [1]): ~3 fold
B3: KQTAR(SuK)-AMC peptide (peptide)
peptide: KQTARK(Suc)-{AMC}
